What was measured:
[1] = molecular target: T1, GST-BrERF72 (Brassica (Chinese flowering cabbage), UniProt M4CBR0 1-245); experiment: EMSA; LightShift Chemiluminescent EMSA kit, 6% native PAGE; buffer, salt, pH and temperature not stated; settings: protein: recombinant, tags: N-terminal GST (pGEX-4T-1), label: 5' biotin
[2] = molecular target: T1, GST-BrERF72; experiment: competition; unlabeled mutant vs labeled BrAOC3 probe; LightShift Chemiluminescent EMSA kit, 6% native PAGE; buffer, salt, pH and temperature not stated; settings: protein: recombinant; tags: N-terminal GST (pGEX-4T-1); blunt
[3] = molecular target: T1, GST-BrERF72; experiment: competition; unlabeled mutant vs labeled BrOPR3 probe; LightShift Chemiluminescent EMSA kit, 6% native PAGE; buffer, salt, pH and temperature not stated; settings: protein: recombinant; tags: N-terminal GST (pGEX-4T-1); blunt
[4] = molecular target: T1, GST-BrERF72; experiment: competition; unlabeled mutant vs labeled BrLOX4 probe; LightShift Chemiluminescent EMSA kit, 6% native PAGE; buffer, salt, pH and temperature not stated; settings: protein: recombinant; tags: N-terminal GST (pGEX-4T-1); blunt

T1 sequence (M4CBR0 entry or part of it): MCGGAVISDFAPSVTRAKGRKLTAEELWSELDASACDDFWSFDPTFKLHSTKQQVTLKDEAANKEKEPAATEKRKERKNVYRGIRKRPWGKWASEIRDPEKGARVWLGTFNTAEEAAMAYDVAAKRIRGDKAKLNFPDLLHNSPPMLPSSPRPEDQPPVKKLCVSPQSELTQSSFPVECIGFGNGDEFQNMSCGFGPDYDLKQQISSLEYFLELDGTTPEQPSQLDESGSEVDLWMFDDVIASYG

B1: BrAOC3 promoter probe (dsDNA)
DNA 1: ATGTCTTCACTAAAAACACTATACCGACCAGAGTTTTGTAGACATAAATTACGAA
DNA 2: TTCGTAATTTATGTCTACAAAACTCTGGTCGGTATAGTGTTTTTAGTGAAGACAT
- binding result ([1]; blunt): binds

B2: mBrAOC3 promoter probe (dsDNA)
DNA 1: ATGTCTTCACTAAAAACACTATAAAAAACAGAGTTTTGTAGACATAAATTACGAA
DNA 2: TTCGTAATTTATGTCTACAAAACTCTGTTTTTTATAGTGTTTTTAGTGAAGACAT
- binding result [2]: no binding

B3: mBrOPR3 promoter probe (dsDNA)
DNA 1: CCTGAACCAATCATAGCCTAAAAAATAAGTCTTACAGTTGA
DNA 2: TCAACTGTAAGACTTATTTTTTAGGCTATGATTGGTTCAGG
- binding result [3]: no binding

B4: GCC-box probe (dsDNA)
DNA 1: CATAAGAGCCGCCACTCATAAGAGCCGCCACT
DNA 2: AGTGGCGGCTCTTATGAGTGGCGGCTCTTATG
- binding result [1]: binds

B5: BrLOX4 promoter probe (dsDNA)
DNA 1: ACATGTTATATCCGCGCGAAGCGCGGACACCGACTCTAGTTATCAGTAAAAATAAATG
DNA 2: CATTTATTTTTACTGATAACTAGAGTCGGTGTCCGCGCTTCGCGCGGATATAACATGT
- binding result ([1]; blunt): binds

B6: mBrLOX4 promoter probe (dsDNA)
DNA 1: ACATGTTATATCCGCGCGAAGCGCGGACAAAAAATCTAGTTATCAGTAAAAATAAATG
DNA 2: CATTTATTTTTACTGATAACTAGATTTTTTGTCCGCGCTTCGCGCGGATATAACATGT
- binding result [4]: no binding

B7: BrOPR3 promoter probe (dsDNA)
DNA 1: CCTGAACCAATCATAGCCTGGCGGCTAAGTCTTACAGTTGA
DNA 2: TCAACTGTAAGACTTAGCCGCCAGGCTATGATTGGTTCAGG
- binding result ([1]; blunt): binds

B8: DRE/CRT probe (dsDNA)
DNA 1: ATTTCATGGCCGACCTGCTTTCATGGCCGACCTGCTTT
DNA 2: AAAGCAGGTCGGCCATGAAAGCAGGTCGGCCATGAAAT
- binding result [1]: binds
